This is an account of results in article PMC4890040.

What all share (assay): SEC; protein alone, prior to DNA binding; Superdex 200, 20 mM Tris pH 7.5, 0.2 M NaCl, 5 mM DTT, 4 °C, 50 μL/min; peaks assigned to monomer and dimer by elution times
(In general: Size exclusion chromatography separates by hydrodynamic size, large species first.)

Test [1] deals with L-Tgf2TPase(D228N, E648Q) (goldfish (Carassius auratus)).
Test [2] has as its target full length Tgf2 transposase (L-Tgf2TPase) (goldfish (Carassius auratus)).
Test [3] concerns the target S2-Tgf2TPase (truncated Tgf2 transposase, 124-686 aa) (goldfish (Carassius auratus)).
For test [4], the target named is S1-Tgf2TPase (truncated Tgf2 transposase, 110-686 aa) (goldfish (Carassius auratus)).

With L-Tgf2TPase(D228N, E648Q) (enzyme), in test [1], the stoichiometry N (as a rule, the number of molecules, sites or subunits per partner or assembly) worked out at 2.

Regarding “full length Tgf2 transposase (L-Tgf2TPase) (enzyme)”, the stoichiometry N in test [2] stood at 2.

“S2-Tgf2TPase (truncated Tgf2 transposase, 124-686 aa) (domain or fragment)” gave a stoichiometry N in test [3] of 2.

As to “S1-Tgf2TPase (truncated Tgf2 transposase, 110-686 aa) (domain or fragment)”, in test [4], the stoichiometry N is 2.
